Source: the supplement of paper PMC10126150
± gives the standard deviation of the averaged measurements.

Tested on: ATP
Experiment: switch fluorescence ratio, 500 uM ATP over buffer (Cy3 cluster intensity, sum of 5 cycles each) (fold (ratio)); higher = stronger signal-on switching upon ATP binding; sequences stand for … in TCGTCGGCAGCGTCAGATGTGTATAAGAGACAGTTTTTTTTTTTTTTTTTTTTTTTTT…TC
Conditions: aptamer strand: ATP DNA aptamer (quencher-CACCTGGGGGAGTATTGCGGAGGAAGG + anchor), 100 nM annealed; ATP concentration: 500 uM
Method in brief: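 Exposure to 500 uM ATP lasted 15 min at 22 °C before imaging, and a selection-buffer image was taken beforehand, for Cy3-labelled switching-strand clusters on a modified Illumina MiSeq flow-cell annealed to 100 nM quencher-labelled ATP aptamer. Five buffer/ATP cycles were run with NaOH stripping and re-annealing between them. The fluorescence ratio per cluster is summed target-cycle over summed buffer-cycle Cy3 intensity, averaged per switch-domain sequence. Clusters outside 100-1000 RFU were excluded.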

Row | Sequence | switch fluorescence ratio
1 | TTCAGTTGAG | 1 ± 0.014
2 | GCTAGGGGTT | 1.13 ± 0.25
3 | CTAGGGAAAC | 1.002 ± 0.009
4 | TATTTAAAAT | 0.995 ± 0.046
5 | ATGGGGGTAC | 0.998 ± 0.014
6 | TTCTTTGACT | 0.983 ± 0.024
7 | CGGAAATGAA | 0.9824 ± 0.0028
8 | CCACGCCTGT | 1.09 ± 0.022
9 | TGGTAAAGGT | 0.985 ± 0.014
10 | TACCCTTGGG | 0.9937 ± 0.0072
11 | GCCTTACCTG | 1.05 ± 0.012
12 | CATGGGGTCT | 1.03 ± 0.05
13 | CGTTGGATT | 0.986 ± 0.017
14 | ATTAAGTCGT | 0.982 ± 0.033
15 | CCCCGGATTT | 1.09 ± 0.098
16 | GAAATCGCTG | 0.97 ± 0.072
17 | GAGGAAAGCG | 1.04 ± 0.089
18 | TTCGCCTAAG | 0.9658 ± 0.0067
19 | AAGGATATCT | 0.988 ± 0.022
20 | TTAGCAACGA | 1.09 ± 0.039
21 | TGATTTTGGA | 0.974 ± 0.012
22 | AGGTTTAATT | 1.01 ± 0.015
23 | TGAGGGGGG | 1.01 ± 0.022

Row | Sequence | switch fluorescence ratio
24 | TATCTGGGGT | 1.02 ± 0.025
25 | CCTTTGGAAT | 1.16 ± 0.031
26 | CGCGTTCGGA | 1.04 ± 0.015
27 | CGGGGGTTCG | 1.05 ± 0.057
28 | GAACTGCATA | 1.09 ± 0.085
29 | TATAATTCTA | 0.9844 ± 0.0075
30 | GGGTATCTCG | 0.9938 ± 0.0063
31 | AAATATGACT | 1.06 ± 0.058
32 | GCGGGGAGGT | 1.01 ± 0.055
33 | CGAGTTGGCT | 1 ± 0.032
34 | CAGGAGGAGA | 1.025 ± 0.01
35 | GGTGGGTTTG | 1.03 ± 0.024
36 | TCCGTTTTGG | 1.03 ± 0.066
37 | GGTTGGCATA | 0.984 ± 0.016
38 | TTCGTCGGAT | 0.9991 ± 0.0037
39 | GAAGTAGTAA | 1.02 ± 0.03
40 | CGGGGTGCTT | 1.01 ± 0.012
41 | CAGTTAAAGG | 1.01 ± 0.017
42 | TGTTTAAGCG | 0.958 ± 0.085
43 | CTGAGCTTCG | 1 ± 0.0032
44 | TTAAATTCAT | 0.97175 ± 0.0009
45 | TTTGTGGACG | 1.08 ± 0.08
46 | TGAGCTAAAT | 1.18 ± 0.31

Row | Sequence | switch fluorescence ratio
47 | TCGTACAGTT | 1.03 ± 0.02
48 | GTGCTAACCT | 1.271 ± 0.011
49 | TAGGTTTGGG | 0.962 ± 0.025
50 | GGGGTACTTT | 0.991 ± 0.026
51 | ACACGGGAAG | 1.02 ± 0.011
52 | TGCGGGTAGG | 1.03 ± 0.012
53 | TGAGTCGGGA | 1.01 ± 0.014
54 | GGGCCATGTA | 1 ± 0.034
55 | GACGATAGAT | 1.048 ± 0.00083
56 | CTCTGTGACG | 1.03 ± 0.012
57 | CGTGGTTGCA | 0.989 ± 0.018
58 | GCCAATAGTT | 1.046 ± 0.0073
59 | GCATGTGTAT | 1.01 ± 0.031
60 | GCCGCATTTG | 1.147 ± 0.011
61 | ATTTAATAAT | 0.985 ± 0.018
62 | AACATGGGGC | 1.02 ± 0.041
63 | TGATTATGGG | 0.9781 ± 0.0063
64 | ATACTCAACA | 1.248 ± 0.0099
65 | AGTTATTGTG | 1.04 ± 0.094
66 | TGTGGTGAA | 1.01 ± 0.011
67 | TTTGTCATGG | 1.04 ± 0.037
68 | TTATTACGGG | 1.01 ± 0.038
69 | GTAGGGCGGG | 0.979 ± 0.043

Row | Sequence | switch fluorescence ratio
70 | AAGGAGGCAG | 1.03 ± 0.045
71 | TCAAATTCGG | 1.01 ± 0.011
72 | TGGTGGGGTC | 1 ± 0.034
73 | CGGGGAGAGC | 1.03 ± 0.039
74 | CGGGTAGTTA | 0.99 ± 0.029
75 | TTTACGTTGC | 1.34 ± 0.47
76 | CTCCAGACGA | 1.47 ± 0.083
77 | TTTGAGTAGG | 0.992 ± 0.038
78 | AGATTGGGCT | 0.997 ± 0.03
79 | GTAGGGCGGT | 0.955 ± 0.026
80 | GCATATCCGG | 1.02 ± 0.011
81 | GTTAGCGGGG | 0.9823 ± 0.0048
82 | TCGTTCACTG | 0.9891 ± 0.007
83 | TTGACCTGGT | 1.05 ± 0.053
84 | ATGGGAGAAA | 1.01 ± 0.0045
85 | GAAGGCATTT | 1.16 ± 0.28
86 | TTGGTGCGTT | 0.992 ± 0.018
87 | CCATTAGCAT | 2.12 ± 0.2
88 | TGATAAATTT | 1.01 ± 0.023
89 | AACGGGGGGG | 1.05 ± 0.037
90 | GGCCTAAAGG | 1.005 ± 0.0082
91 | CATTAGTTGT | 1.02 ± 0.011
92 | TCGGTACGG | 1.07 ± 0.017

Row | Sequence | switch fluorescence ratio
93 | ACTTGGCAAT | 4.347 ± 0.014
94 | TGACGTGTTG | 1.02 ± 0.083
95 | GGGGACTTGT | 0.9988 ± 0.0082
96 | TCCTTGGAGG | 0.989 ± 0.028
97 | ATGGGGCATC | 0.9907 ± 0.0082
98 | AGGGCTTAGA | 0.9905 ± 0.0033
99 | AACATTTCTT | 0.976 ± 0.045
100 | TATTTGTGTT | 0.997 ± 0.016
101 | ACGGGGTCT | 1.02 ± 0.012
102 | TGGTTTAGGG | 0.981 ± 0.026
103 | TTATAAATTG | 0.991 ± 0.03
104 | GGCATGGTGG | 1.01 ± 0.023
105 | AAGCGGTTTT | 1 ± 0.019
106 | CAATATGCCG | 0.968 ± 0.026
107 | GCTATACGAT | 2.17 ± 0.18
108 | GACCTGAGCA | 1.113 ± 0.0034
109 | TTACCGGGAG | 1.05 ± 0.013
110 | GGGCACGCTG | 1.033 ± 0.0053
111 | GACCGGATTC | 1.06 ± 0.11
112 | AGCCGCGCAG | 1.035 ± 0.0056
113 | TTCATCGGGG | 0.979 ± 0.028
114 | AACGGTTTCC | 1.02 ± 0.038
115 | TTTAGTAGGT | 1.03 ± 0.023

Row | Sequence | switch fluorescence ratio
116 | ATACTGAGGC | 0.999 ± 0.029
117 | TTGAAAATCT | 1.02 ± 0.029
118 | CGCGGTTAAA | 1.18 ± 0.19
119 | GTTTTGATCA | 1 ± 0.016
120 | TTTGGCAGGG | 0.996 ± 0.024
121 | CAAGGCTACG | 1.06 ± 0.04
122 | TAGTGGACTC | 1.02 ± 0.034
123 | CCGGACTTGG | 0.96 ± 0.09
124 | TCGGACGTCG | 1.07 ± 0.019
125 | TTGCGCGGGA | 1.02 ± 0.072
126 | TCTTTTGCAT | 1.06 ± 0.019
127 | ATGTTGATCC | 1.03 ± 0.03
128 | CCGGATTAA | 1.02 ± 0.039
129 | TAGTTTTCGC | 1 ± 0.031
130 | AAAGTAGACA | 1.005 ± 0.0063
131 | AAAAGCATGT | 1.06 ± 0.03
132 | GAGGTTGACA | 1.03 ± 0.017
133 | GTATTGTGGT | 0.967 ± 0.017
134 | TCTGAGCGGC | 0.9349 ± 0.0037
135 | GCATTAAGGA | 1.058 ± 0.008
136 | AAAAAGCTGG | 1.03 ± 0.038
137 | GGGAGTGTGG | 1.001 ± 0.0062
138 | ATTCGTAGTG | 1.004 ± 0.0016

Row | Sequence | switch fluorescence ratio
139 | GGGGGGAGTC | 1.05 ± 0.028
140 | TCTTTAATTT | 0.985 ± 0.026
141 | AGTTTTTGGG | 0.97 ± 0.037
142 | GTGGACTTCG | 1.0178 ± 0.001
143 | CGCCGGGGGC | 1.03 ± 0.014
144 | TAGTCAGGGG | 0.9852 ± 0.0041
145 | GGCCACTGGA | 1.02 ± 0.021
146 | TTAGACGGGG | 1 ± 0.034
147 | CGTAGGGTGT | 1 ± 0.022
148 | CAGGGCATGG | 1.01 ± 0.0073
149 | CCGGACCAGA | 1.15 ± 0.057
150 | GTTATTATTA | 0.993 ± 0.019
151 | TGGGGTTTCA | 1 ± 0.012
152 | TAATTTATTT | 1.03 ± 0.029
153 | TTACATAGTA | 1.06 ± 0.071
154 | GGGCGGGGGG | 1.01 ± 0.03
155 | AAAGGTACGT | 0.987 ± 0.021
156 | GGTTTGTCGT | 0.957 ± 0.04
157 | TTATGAGTTT | 0.988 ± 0.036
